# Assay results reported in patent US20260062495A1 (TG THERAPEUTICS, published 2026).
# What was measured:
# [1] = target: T1, C1q (complement component 1q) (UniProt P02745 23-245; P02746 28-253; P02747 29-245); assay: C1q ELISA, 4-parameter logistic fit; % potency relative to reference standard; TG-1101 from 10 L culture at post-shift pH 6.70 +/- 0.10
# Method: (§1) The binding of anti-CD20 antibody to C1q is evaluated using a C1q ELISA-based method. The dose-response binding is modeled by weighted nonlinear regression using a 4-parameter logistic fit, and the results are reported as % potency relative to the reference standard.
# (§2) Purified antibody (TG-1101) from each of the 10 L bioreactor cultures was also tested in various binding assays (CD20 antigen, Fc gamma receptor, complement component 1q), as well as Fc effector activity assays (ADCC, CDC).
# [2] = target: T1, C1q (complement component 1q); assay: C1q ELISA, 4-parameter logistic fit; % potency relative to reference standard; TG-1101 from 10 L culture at post-shift pH 6.80 +/- 0.03
# Method: as §1, §2
# [3] = target: T1, C1q (complement component 1q); assay: C1q ELISA, 4-parameter logistic fit; % potency relative to reference standard; TG-1101 from 10 L culture at post-shift pH 6.85 +/- 0.05
# Method: as §1, §2
# [4] = target: T1, C1q (complement component 1q); assay: C1q ELISA, 4-parameter logistic fit; % potency relative to reference standard; TG-1101 from 10 L culture at post-shift pH 6.95 +/- 0.05
# Method: as §1, §2
# [5] = target: T2, FcγRIIIa-158V (Fc gamma receptor 3a, higher affinity allele) (UniProt P08637 17-208); assay: SPR, Fc receptor immobilised on chip, antibody injected; 1:1 Langmuir fit; % potency relative to reference standard; TG-1101 from 10 L culture at post-shift pH 6.70 +/- 0.10
# T2 construct: Immobilised directly on the SPR chip; also called Fc receptor
# T2 sequence (P08637 17-208 F176V): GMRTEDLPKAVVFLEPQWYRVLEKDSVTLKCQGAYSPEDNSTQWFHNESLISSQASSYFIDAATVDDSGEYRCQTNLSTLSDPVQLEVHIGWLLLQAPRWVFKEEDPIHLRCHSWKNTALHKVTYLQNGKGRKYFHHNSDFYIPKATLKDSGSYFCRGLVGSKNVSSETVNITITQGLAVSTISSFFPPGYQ
# Method: (§3) The binding of anti-CD20 antibody samples to FcγRIIIa is evaluated by surface plasmon resonance (SPR). The method follows a direct binding assay methodology where the Fc receptor (ligand) is directly immobilized onto the appropriate flow cell on a sensor chip surface and the analyte is injected over the chip to assess binding. The high affinity allele of FcγRIIIa (158V) is determined.
# (§4) The equilibrium dissociation constants (KD) and the relative affinities of each sample relative to the reference standard is determined for each receptor. The rates of change of the SPR signal is analyzed using a 1:1 Langmuir model to yield apparent rate constants for the association and dissociation phases of the reaction, and equilibrium dissociation constants. Results are reported as % potency relative to the reference standard for the FcγRIIIa-158V variant.
# as §2
# [6] = target: T2, FcγRIIIa-158V (Fc gamma receptor 3a, …); assay: SPR, Fc receptor immobilised on chip, antibody injected; 1:1 Langmuir fit; % potency relative to reference standard; TG-1101 from 10 L culture at post-shift pH 6.80 +/- 0.03
# Method: as §3, §4, §2
# [7] = target: T2, FcγRIIIa-158V (Fc gamma receptor 3a, …); assay: SPR, Fc receptor immobilised on chip, antibody injected; 1:1 Langmuir fit; % potency relative to reference standard; TG-1101 from 10 L culture at post-shift pH 6.85 +/- 0.05
# Method: as §3, §4, §2
# [8] = target: T2, FcγRIIIa-158V (Fc gamma receptor 3a, …); assay: SPR, Fc receptor immobilised on chip, antibody injected; 1:1 Langmuir fit; % potency relative to reference standard; TG-1101 from 10 L culture at post-shift pH 6.95 +/- 0.05
# Method: as §3, §4, §2
# [9] = target: T3, CD20 on the CD20 expressing human mantle cell lymphoma cell line Jeko-1 (human, UniProt P11836 1-297); assay: Cell-based binding to Jeko-1 cells, Meso Scale Discovery electrochemiluminescence, 4PL; % potency relative to reference standard; TG-1101 from 10 L culture at post-shift pH 6.70 +/- 0.10
# T3 construct: whole, on cells; The target is presented on Jeko-1 cells; also called CD20 antigen
# T3 sequence (looked up): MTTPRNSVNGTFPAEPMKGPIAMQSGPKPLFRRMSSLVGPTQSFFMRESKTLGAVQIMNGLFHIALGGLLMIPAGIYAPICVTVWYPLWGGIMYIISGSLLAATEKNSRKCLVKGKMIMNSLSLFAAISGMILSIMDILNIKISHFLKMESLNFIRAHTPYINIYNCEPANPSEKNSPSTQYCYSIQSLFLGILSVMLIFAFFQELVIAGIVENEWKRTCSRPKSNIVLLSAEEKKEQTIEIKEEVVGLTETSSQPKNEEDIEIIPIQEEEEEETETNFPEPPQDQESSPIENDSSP
# Method: (§5) In the CD20 binding activity assay, the binding of anti-CD20 antibody to the CD20 expressing human mantle cell lymphoma cell line, Jeko-1, is evaluated using the Meso Scale Discovery (MSD) method. Dose response curves are modeled using 4PL equation, and results are reported as % potency relative to the reference standard.
# as §2
# [10] = target: T3, CD20 on the CD20 expressing human …; assay: Cell-based binding to Jeko-1 cells, Meso Scale Discovery electrochemiluminescence, 4PL; % potency relative to reference standard; TG-1101 from 10 L culture at post-shift pH 6.80 +/- 0.03
# Method: as §5, §2
# [11] = target: T3, CD20 on the CD20 expressing human …; assay: Cell-based binding to Jeko-1 cells, Meso Scale Discovery electrochemiluminescence, 4PL; % potency relative to reference standard; TG-1101 from 10 L culture at post-shift pH 6.85 +/- 0.05
# Method: as §5, §2
# [12] = target: T3, CD20 on the CD20 expressing human …; assay: Cell-based binding to Jeko-1 cells, Meso Scale Discovery electrochemiluminescence, 4PL; % potency relative to reference standard; TG-1101 from 10 L culture at post-shift pH 6.95 +/- 0.05
# Method: as §5, §2
# T1 sequence (P02745 23-245, chain 1 of 3): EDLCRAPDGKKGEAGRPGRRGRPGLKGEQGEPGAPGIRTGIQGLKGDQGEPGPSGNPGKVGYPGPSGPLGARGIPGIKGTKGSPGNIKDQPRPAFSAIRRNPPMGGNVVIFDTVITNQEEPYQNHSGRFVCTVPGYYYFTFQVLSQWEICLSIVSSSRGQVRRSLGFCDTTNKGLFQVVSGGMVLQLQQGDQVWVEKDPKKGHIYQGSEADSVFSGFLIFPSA
# T1 sequence (P02746 28-253, chain 2 of 3): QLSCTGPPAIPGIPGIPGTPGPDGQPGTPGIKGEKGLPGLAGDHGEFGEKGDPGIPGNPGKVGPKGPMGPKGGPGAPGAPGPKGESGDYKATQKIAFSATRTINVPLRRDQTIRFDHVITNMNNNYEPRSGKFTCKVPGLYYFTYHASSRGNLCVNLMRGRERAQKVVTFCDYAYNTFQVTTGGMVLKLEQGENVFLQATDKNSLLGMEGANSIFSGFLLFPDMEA
# T1 sequence (P02747 29-245, chain 3 of 3): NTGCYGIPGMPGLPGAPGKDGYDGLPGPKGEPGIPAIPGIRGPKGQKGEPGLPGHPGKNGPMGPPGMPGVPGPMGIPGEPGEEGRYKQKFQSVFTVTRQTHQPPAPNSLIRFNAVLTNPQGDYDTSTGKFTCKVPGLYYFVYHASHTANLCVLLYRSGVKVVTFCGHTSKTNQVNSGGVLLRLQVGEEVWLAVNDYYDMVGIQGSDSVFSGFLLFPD
binder,measurement,setting,value
"TG-1101 (anti-CD20 IgG1 monoclonal antibody expressed in YB2/0 rat hybridoma cells) (antibody, N-linked glycans with low fucosylation (18.4-27.5 % fucosylation in the 10 L cultures of Table 7), also called ublituximab; UBX) heavy: not shown light: QIVLSQSPAILSASPGEKVTMTCRASSSVSYMHWYQQKPGSSPKPWIYATSNLASGVPARFSGSGSGTSYSFTISRVEAEDAATYYCQQWTFNPPTFGGGTRLEIKRTVAAPSVFIFPPSDEQLKSGTASVVCLLNNFYPREAKVQWKVDNALQSGNSQESVTEQDSKDSTYSLSSTLTLSKADYEKHKVYACEVTHQGLSSPVTKSFNRGEC",C1q binding (%) relative to the reference standard,[1],86.6%
same,C1q binding (%) relative to the reference standard,[2],84.5%
same,C1q binding (%) relative to the reference standard,[3],81.2%
same,C1q binding (%) relative to the reference standard,[4],76.5%
same,FcγRIIIa-158V binding (%) relative to the reference standard,[5],120%
same,FcγRIIIa-158V binding (%) relative to the reference standard,[6],98.2%
same,FcγRIIIa-158V binding (%) relative to the reference standard,[7],108%
same,FcγRIIIa-158V binding (%) relative to the reference standard,[8],109%
same,CD20 binding (%) relative to the reference standard,[9],116%
same,CD20 binding (%) relative to the reference standard,[10],96.8%
same,CD20 binding (%) relative to the reference standard,[11],89.5%
same,CD20 binding (%) relative to the reference standard,[12],110%
